According to the supplement of paper PMC10567573:

B1: KLHDC10 (parent)
chain: CPIIRIPNRFLRGHRPPPARSGHR
B2: PTPRD (parent)
chain: MVHVARLLLLLLTFFLRTDAETPP

Variants of: B1
Assay: protein stability index of a GFP-peptide fusion (GPS, HEK-293T) (PSI 1-6); higher = more stable
Conditions: c terminus: a fixed tail appended
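Note: lentivirally expressed fusions sorted by FACS into six bins by GFP to DsRed ratio, PSI derived from sequencing read proportions per bin multiplied by bin number.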

Protein stability index of substitutions, site by site:
R12: K 2.09 | P 1.63 | T 2.02 | L 2.25 | W 2.5 | G 1.8 | D 1.92 | M 1.06 | N 2.27 | H 2.69 | I 2.32 | E 2.47 | V 2.75 | Y 2.43 | A 1.71 | Q 2.07 | S 1.9 | C 1.28 | F 1.75
R9: T 1.46 | F 2.94 | L 2.36 | N 2.01 | V 2.43 | A 1.61 | D 2.1 | P 3.47 | Q 2.47 | S 2.12 | G 1.53 | H 2.32 | M 1.42 | Y 1.71 | K 1.37 | C 2.48
P16: H 1.92 | C 2.5 | K 3.27 | Q 2.1 | F 1.9 | R 1.2 | S 2.12 | E 1.92 | G 1.42 | I 1.73 | M 2.33 | V 1.23 | T 2.38 | Y 1.31 | D 1.72 | L 1.85 | N 2.56
P17: S 2.27 | D 1.63 | M 1.8 | G 2.09 | H 1.76 | N 2.2 | I 1.93 | C 1.21 | Q 1.57 | Y 2.55 | T 1.64 | A 2.28 | L 2.28 | W 1.97 | K 2.98 | E 1.93 | V 3.32 | R 2.34 | F 1.81
G13: T 2.65 | H 1.98 | P 1.48 | L 1.85 | W 2 | Y 1.88 | N 2.2 | R 1.74 | K 1.9 | D 1.55 | F 1.81 | A 2.21 | I 2.04 | Q 2.36 | E 1.38 | C 1.53 | M 1.9
P18: A 1.51 | C 1.82 | S 2.37 | Y 1.91 | T 1.92 | D 1.49 | L 1.47 | N 2.43 | K 2.5 | Q 1.78 | M 1.74 | H 2.37 | V 2.27 | I 2.17 | F 1.62 | E 1.78 | R 1.63 | G 2.95 | W 1.85
F10: C 2.48 | I 2.46 | L 2.48 | P 1.45 | S 2.12 | K 1.71 | V 1.4 | M 1.82 | R 2.65 | H 2.25 | Y 1.8 | G 1.81 | Q 2.63 | E 1.71 | W 2.38 | A 2.85 | T 2.11
S21: N 2.25 | L 1.97 | H 1.75 | I 1.36 | G 2.63 | W 1.83 | V 1.62 | F 2.91 | Q 1.42 | M 1.66 | P 1.94 | R 1.97 | T 1.83 | K 1.65 | A 1.85 | D 1.75
R20: A 2.48 | L 2.45 | G 1.95 | I 1.38 | Q 1.93 | P 2.16 | V 2.62 | M 2.13 | C 1.48 | F 2.81 | D 2.73 | T 2.51 | W 1.75
R24: H 2.01 | A 2.37 | N 1.84 | M 1.93 | S 2.03 | E 1.59 | C 1.82 | P 2.33 | K 1.29 | V 2.54 | F 1.31 | Y 1.7 | D 2.93 | G 2.1 | I 2.99 | L 2.61 | W 2.99
N8: V 2.79 | Q 1.3 | C 1.94 | D 2.15 | Y 2.07 | I 2.36 | S 2.44 | R 2.54 | L 2.21 | E 2.15 | H 2.69 | T 2.52 | W 2.59 | M 1.97 | K 2.42 | G 1.38 | A 1.46 | F 1.81
P7: E 1.57 | V 1.86 | H 3.62 | Q 3.04 | L 2.25 | I 2.39 | Y 2.11 | M 3.29 | K 2.7 | W 3.51 | T 2.23 | R 3.66 | S 3.13 | G 3.71 | N 2.6 | F 2.28
H23: Y 2.01 | N 2.43 | I 1.82 | D 1.38 | E 1.66 | W 1.59 | K 1.5 | T 2.66 | F 1.52 | P 1.67 | V 1.69 | Q 2.06 | S 1.02 | L 1.12 | A 1.85 | G 2.02 | R 1.67 | M 1.49
H14: E 2.22 | N 1.89 | F 1.83 | T 1.74 | S 2.07 | K 2.57 | G 1.46 | A 1.96 | L 1.32 | W 2.89 | M 1.87 | D 1.69 | I 1.87 | Y 1.33 | R 1.76 | V 2.46 | P 2.15 | C 1.48
G22: H 1.84 | Y 1.98 | I 1.82 | Q 1.33 | T 2.39 | K 1.71 | L 2.02 | A 1.57 | M 1.91 | V 2.76 | D 2.62 | R 2.17 | E 1.78 | C 1.62 | S 1.66 | F 2.01 | N 1.95
R15: M 1.84 | C 1.68 | T 1.73 | F 1.43 | D 2.11 | L 1.05 | E 1.92 | W 1.47 | K 2.19 | Q 2.44 | N 2.3 | Y 1.51 | S 1.69 | V 1.84 | G 1.69 | I 1.28 | A 1.3
L11: G 2.3 | W 1.7 | S 2.46 | M 2.89 | H 1.69 | Q 1.35 | R 2.54 | T 1.96 | D 1.42 | C 1.4 | K 3.08 | F 1.84 | V 2.83 | Y 2 | E 1.31
A19: K 1.61 | L 1.46 | V 1.48 | M 2.12 | W 1.69 | S 1.8 | I 1.4 | Q 1.48 | G 1.82 | D 2.95 | F 1.69 | N 2.23 | H 3.04 | R 2.02

Variants of: B2
Assay: as above
Conditions: c terminus: a fixed tail appended

Protein stability index, by site and new letter:
F14: M 3.79 | I 2.56
L7: T 3.27
L12: C 3.16 | H 1.58
M1: F 1.96
P23: Q 3.52 | T 1.86
L8: T 3.02
D19: L 2.71 | V 3.32
P24: C 4.5 | M 3.61
V4: R 2.34
L16: Y 1.52 | W 1.81
T22: N 2.05 | D 2.81
A5: I 1.95
H3: S 4.08
T18: M 2.62 | K 3.74 | G 2.47 | C 1.86
V2: H 2.53 | W 2.96 | G 1.83 | F 4.14
L10: A 2.23
T13: Q 1.32 | G 2.01
